We go through two molecules from paper PMC5358723 (Genes & Development, 2017).

The labels stand for the following.
B1: ZMYM3 CT (amino acids 1000-1370), bacterially expressed (domain or fragment, human, UniProt Q14202 1000-1370, looked up)
chain: FPKNPLDINPSVDFLFDCGLVGPEDVSTEQDLPRTMRKGQKRLVLSESCSRDSMSSQPSCTGLNYSYGVNAWKCWVQSKYANGETSKGDELRFGPKPMRIKEDILACSAAELNYGLAQFVREITRPNGERYEPDSIYYLCLGIQQYLLENNRMVNIFTDLYYLTFVQELNKSLSTWQPTLLPNNTVFSRVEEEHLWECKQLGVYSPFVLLNTLMFFNTKFFGLQTAEEHMQLSFTNVVRQSRKCTTPRGTTKVVSIRYYAPVRQRKGRDTGPGKRKREDEAPILEQRENRMNPLRCPVKFYEFYLSKCPESLRTRNDVFYLQPERSCIAESPLWYSVIPMDRSMLESMLNRILAVREIYEELGRPGEEDLD
B2: RAP80-AIR (amino acids 227-346), bacterially expressed (domain or fragment, UniProt Q96RL1 227-346, looked up)
chain: HTQCGKPQESTGRGSAFLKAVQGSGDTSRHCLPTLADAKGLQDTGGTVNYFWGIPFCPDGVDPNQYTKVILCQLEVYQKSLKMAQRQLLNKKGFGEPVLPRPPSLIQNECGQGEQASEKN

In test [1] the target is T1, full-length ABRA1, bacterially expressed (UniProt Q6UWZ7 1-409).
T1 sequence (looked up): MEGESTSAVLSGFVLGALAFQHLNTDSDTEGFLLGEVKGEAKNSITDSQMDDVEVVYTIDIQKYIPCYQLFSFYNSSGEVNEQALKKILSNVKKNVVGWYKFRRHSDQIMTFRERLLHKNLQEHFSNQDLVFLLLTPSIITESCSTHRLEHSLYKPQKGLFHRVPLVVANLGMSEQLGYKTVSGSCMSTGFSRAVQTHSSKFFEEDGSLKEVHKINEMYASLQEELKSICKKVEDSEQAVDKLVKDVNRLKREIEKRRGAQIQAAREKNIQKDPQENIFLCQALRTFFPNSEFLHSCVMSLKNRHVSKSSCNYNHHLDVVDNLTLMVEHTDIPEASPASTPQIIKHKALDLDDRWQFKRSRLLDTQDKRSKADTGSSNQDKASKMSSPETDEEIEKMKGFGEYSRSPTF
Kind of test: pull-down.

The target of test [2] is B1. Kind of test: pull-down.

Regarding B1, the binding result in test [1] was “binds”. As to B2, in test [2], the binding result is reported as “binds”.
